Reference: patent publication US20180244769A1 (Ablynx, published 2018)
Values belong to the binder of their own block, whether it stands above or below them.

Tests used:
[1] = target: human P2X7 (hP2X7) (human) (UniProt Q99572); assay: cell-based or functional assay
mouse P2X7 (mP2X7) = target: T1, mouse P2X7 (mP2X7) (mus musculus, UniProt Q9Z1M0 1-595); assay: flow cytometry, HEK cells co-transfected with GFP and mP2X7, detection with Alexa647 anti-mouse IgG
T1 construct: Also used here for endogenous P2X7 on Yac-1 cells, primary mouse lymphocytes and macrophages
T1 chain: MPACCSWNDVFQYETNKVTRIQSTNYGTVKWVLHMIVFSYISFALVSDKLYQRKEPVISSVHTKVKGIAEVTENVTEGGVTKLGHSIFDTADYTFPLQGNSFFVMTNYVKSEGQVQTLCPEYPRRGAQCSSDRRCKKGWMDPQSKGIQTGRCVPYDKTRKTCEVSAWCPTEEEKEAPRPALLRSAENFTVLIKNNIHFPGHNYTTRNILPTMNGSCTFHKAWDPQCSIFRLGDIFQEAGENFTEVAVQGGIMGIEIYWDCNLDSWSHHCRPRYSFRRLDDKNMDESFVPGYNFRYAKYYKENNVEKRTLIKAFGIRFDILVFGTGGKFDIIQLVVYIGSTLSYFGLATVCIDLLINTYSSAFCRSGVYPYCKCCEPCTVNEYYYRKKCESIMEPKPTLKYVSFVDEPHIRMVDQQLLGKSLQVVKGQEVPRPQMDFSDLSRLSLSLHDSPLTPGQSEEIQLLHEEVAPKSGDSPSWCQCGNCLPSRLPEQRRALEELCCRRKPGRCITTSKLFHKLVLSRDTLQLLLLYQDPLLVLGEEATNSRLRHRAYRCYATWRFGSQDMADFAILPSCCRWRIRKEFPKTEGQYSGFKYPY
Text: (§1) In order to verify the specificity of the selected Nbs and to determine whether the Nbs would bind also to mouse P2X7 or rat P2X7, HEK cells were co-transfected with expression constructs for GFP and either hP2X7, mP2X7, or rP2X7. Twenty four hours post transfection cells were stained with Nb-Fc fusion proteins or mAb L4 before FACS analyses (FIG. 3). […] By comparison, previously described Nbs 13A7 and 14D5 (WO 2010/070145) recognize mP2X7, but not hP2X7 or rP2X7, mAb L4 recognizes hP2X7 and rP2X7, but not mP2X7.

[2] = target: human P2X7 (hP2X7) (human) (UniProt Q99572); assay: flow cytometry of whole blood of one donor, gate on lymphocytes, Alexa647 conjugate with anti-CD4; blocked = pre-incubated with excess unlabelled Nb-Fc (legend: 3 ug each of 1c113-Fc and 3c23-Fc); lower quadrants 44 and 54
rat P2X7 (rP2X7) = target: T2, rat P2X7 (rP2X7) (Rattus norvegicus, UniProt Q64663 1-595); assay: flow cytometry, HEK cells co-transfected with GFP and rP2X7, detection with Alexa647 anti-mouse IgG
T2 sequence: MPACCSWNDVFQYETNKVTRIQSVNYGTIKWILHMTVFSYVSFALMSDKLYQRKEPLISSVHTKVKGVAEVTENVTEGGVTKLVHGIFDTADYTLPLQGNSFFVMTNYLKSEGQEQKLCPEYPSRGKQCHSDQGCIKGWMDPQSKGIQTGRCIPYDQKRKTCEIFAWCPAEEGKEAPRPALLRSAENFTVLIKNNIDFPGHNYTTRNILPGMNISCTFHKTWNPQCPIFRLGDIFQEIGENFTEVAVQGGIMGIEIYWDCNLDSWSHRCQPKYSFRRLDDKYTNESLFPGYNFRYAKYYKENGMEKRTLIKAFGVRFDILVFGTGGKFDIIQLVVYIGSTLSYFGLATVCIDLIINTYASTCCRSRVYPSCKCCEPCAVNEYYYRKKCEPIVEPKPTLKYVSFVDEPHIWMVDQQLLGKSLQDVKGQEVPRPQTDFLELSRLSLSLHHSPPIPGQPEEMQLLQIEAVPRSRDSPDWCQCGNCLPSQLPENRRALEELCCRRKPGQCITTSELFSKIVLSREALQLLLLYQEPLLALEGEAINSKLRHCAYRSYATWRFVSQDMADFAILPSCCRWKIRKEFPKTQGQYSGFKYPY
Text: as §1

[3] = target: human P2X7 (hP2X7) (human) (UniProt Q99572); assay: flow cytometry of whole blood of one donor, gate on lymphocytes, Alexa647 conjugate with anti-CD4; unblocked = pre-incubated with control 1067-Fc
[4] = target: human P2X7 (hP2X7) (human) (UniProt Q99572); assay: flow cytometry of whole blood of one donor, gate on lymphocytes, Alexa647 conjugate with anti-CD4; unblocked = pre-incubated with control 1067-Fc; lower quadrants 24 and 19
[5] = target: human P2X7 (hP2X7) (human) (UniProt Q99572); assay: flow cytometry, HEK cells co-transfected with GFP and hP2X7, bound antibody detected with Alexa647 anti-mouse IgG; other quadrants: UL 0.8, LL 12, LR 15
[6] = target: human P2X7 (hP2X7) (human) (UniProt Q99572); assay: flow cytometry, HEK cells co-transfected with GFP and hP2X7, bound antibody detected with Alexa647 anti-mouse IgG; other quadrants: UL 1.5, LL 16, LR 11
[7] = target: human P2X7 (hP2X7) (human) (UniProt Q99572); assay: flow cytometry, HEK cells co-transfected with GFP and hP2X7, bound antibody detected with Alexa647 anti-mouse IgG; other quadrants: UL 72, LL 26, LR 0.5
[8] = target: human P2X7 (hP2X7) (human) (UniProt Q99572); assay: flow cytometry, HEK cells co-transfected with GFP and hP2X7, bound antibody detected with Alexa647 anti-mouse IgG; other quadrants: UL 0.7, LL 12, LR 15
[9] = target: human P2X7 (hP2X7) (human) (UniProt Q99572); assay: flow cytometry of whole blood of one donor, gate on lymphocytes, Alexa647 conjugate with anti-CD4; blocked = pre-incubated with excess unlabelled Nb-Fc (legend: 3 ug each of 1c113-Fc and 3c23-Fc); lower quadrants 44 and 55
[10] = target: human P2X7 (hP2X7) (human) (UniProt Q99572); assay: flow cytometry of whole blood of one donor, gate on lymphocytes, Alexa647 conjugate with anti-CD4; unblocked = pre-incubated with control 1067-Fc; lower quadrants 23 and 19
[11] = target: human P2X7 (hP2X7) (human) (UniProt Q99572); assay: flow cytometry, HEK cells co-transfected with GFP and hP2X7, bound antibody detected with Alexa647 anti-mouse IgG; other quadrants: UL 71, LL 27, LR 0.5

Sequence of human P2X7 (hP2X7) (human) (Q99572 whole entry): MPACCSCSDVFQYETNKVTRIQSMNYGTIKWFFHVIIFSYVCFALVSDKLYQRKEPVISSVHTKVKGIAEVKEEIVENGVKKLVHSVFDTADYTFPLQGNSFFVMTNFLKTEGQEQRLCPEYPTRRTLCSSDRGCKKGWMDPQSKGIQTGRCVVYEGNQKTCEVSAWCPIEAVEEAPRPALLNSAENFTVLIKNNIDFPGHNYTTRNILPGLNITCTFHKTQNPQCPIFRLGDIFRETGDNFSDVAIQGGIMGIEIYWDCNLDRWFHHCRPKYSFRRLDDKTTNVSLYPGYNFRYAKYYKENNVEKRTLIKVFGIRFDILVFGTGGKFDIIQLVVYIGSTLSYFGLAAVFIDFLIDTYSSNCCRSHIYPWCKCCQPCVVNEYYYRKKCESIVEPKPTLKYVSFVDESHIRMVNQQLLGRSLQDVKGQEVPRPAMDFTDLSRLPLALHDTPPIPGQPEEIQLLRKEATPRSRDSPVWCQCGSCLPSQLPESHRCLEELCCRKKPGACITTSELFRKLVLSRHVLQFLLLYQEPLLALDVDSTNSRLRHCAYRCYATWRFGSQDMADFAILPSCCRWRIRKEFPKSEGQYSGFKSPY

- IC50 [nM], blockade of L-selectin (CD62L) shedding in transfected HEK cells, 4 mM ATP [1]: 100 nM
- IC50 [ng/ml], blockade of L-selectin (CD62L) shedding in transfected HEK cells, 4 mM ATP [1]: 1500 ng/mL
B1: Nb 1c81 (monovalent) (VHH)
VHH: EVQLVESGGKLVQAGGSLRLSCSASGRTFSFSTSTMGWFRQAPGKELEFVAAIDWSDFNTYYADSVKGRFTISRHNPRNSVYLQLNSLKPEDTAVYYCAAHSETRGGTRYFDRPSLYNYWGQGTQVTVSS

- binding result (mouse P2X7 (mP2X7)): no binding
- % of lymphocytes in the CD4+ / AF647+ quadrant (upper right), blocked [2]: 0.7%
- % of lymphocytes in the CD4- / AF647+ quadrant (upper left), blocked [2]: 0.8%
- binding result (rat P2X7 (rP2X7)): no binding
- MFI (AF647) of CD4+ lymphocytes, unblocked [3]: 17
- MFI (AF647) of CD4- lymphocytes, unblocked [3]: 14
- % of lymphocytes in the CD4+ / AF647+ quadrant (upper right), unblocked [4]: 35%
- % of lymphocytes in the CD4- / AF647+ quadrant (upper left), unblocked [4]: 22%
- % of cells in the GFP+ / anti-mIgG A647+ quadrant (upper right) [5]: 72%
- IC50 [nM], blockade of L-selectin (CD62L) shedding in transfected HEK cells, 4 mM ATP [1]: > 35 nM
- IC50 [ng/ml], blockade of L-selectin (CD62L) shedding in transfected HEK cells, 4 mM ATP [1]: > 2800 ng/mL
B2: 1c113-Fc (pME 1c113-mIgG1Fc_LSF) (Fc fusion)
chain: DYKDDDDKRSMAEVQLVESGGGLVQPGGSLTLSCAASGIAFNYYSMSWHRQAPGKQRTLVADISPGGHTEYEDSVKGRFTISRDNFKNTMTLHMNSLKPEDTAVYFCAARLRFEVSSNYWGQGTQVTVSSLEPRDCGCKPCICTVPEVSSEVSSVFIFPPKPKDVLLISLFPKVTCVVVDISKDDPEVQFSWFVDDVEVHTAQTQPREEQFNSTFRSVSELPIMHQDWLNGKEFKCRVNSAAFPAPIEKTISKTKGRPKAPQVYTIPPPKEQMAKDKVSLTCMITDFFPEDITVEWQWNGQPAENYKNTQPIMDTDGSYFVYSKLNVQKSNWEAGNTFTCSVLHEGLHNHHTEKSLSHSPGKGK
notes: Used unconjugated or conjugated to Alexa647; also called WD1c113Fc; Nb 1c113-Fc

- % of cells in the GFP+ / anti-mIgG A647+ quadrant (upper right) [6]: 71%
- IC50 [nM], blockade of L-selectin (CD62L) shedding in transfected HEK cells, 4 mM ATP [1]: 5 nM
- IC50 [ng/ml], blockade of L-selectin (CD62L) shedding in transfected HEK cells, 4 mM ATP [1]: 400 ng/mL
- fold enhanced potency to block activation of P2X7, Nb-Fc fusion protein against its monovalent counterpart [1]: 5 to 20 fold
- molar inhibition potency relative to monovalent 1c81 (CD62L shedding) [1]: 20 fold
B3: 1c81-Fc (Nb 1c81 fused to the Fc-domain of mouse IgG1) (Fc fusion, not shown: small tags and cut ends; a dimerising Fc or GST)
chain: EVQLVESGGKLVQAGGSLRLSCSASGRTFSFSTSTMGWFRQAPGKELEFVAAIDWSDFNTYYADSVKGRFTISRHNPRNSVYLQLNSLKPEDTAVYYCAAHSETRGGTRYFDRPSLYNYWGQGTQVTVSSA

- IC50 [nM], blockade of L-selectin (CD62L) shedding in transfected HEK cells, 4 mM ATP [1]: > 185 nM
- IC50 [ng/ml], blockade of L-selectin (CD62L) shedding in transfected HEK cells, 4 mM ATP [1]: > 2800 ng/mL
B4: Nb 1c113 (monovalent) (VHH)
VHH: EVQLVESGGGLVQPGGSLTLSCAASGIAFNYYSMSWHRQAPGKQRTLVADISPGGHTEYEDSVKGRFTISRDNFKNTMTLHMNSLKPEDTAVYFCAARLRFEVSSNYWGQGTQVTVSS

- binding result (rat P2X7 (rP2X7)): no binding
- % of cells in the GFP+ / anti-mIgG A647+ quadrant (upper right) [7]: 1.2%
B5: 14D5-Fc (Nb-Fc fusion protein of Nb 14D5) (Fc fusion)
chain: KVQLVESGGGLVQAGGSLRLSCAASGSPISSYAMGWYRQAPGKPRELVARIYTGGTAWYEDSVKGRFTISRDNAQNTVYLQMNSLKSEDTAVYYCHGRVRYDYWGQGTQVTVSS
notes: Nb-Fc fusion; not shown: Fc part

- binding result (mouse P2X7 (mP2X7)): no binding
- % of cells in the GFP+ / anti-mIgG A647+ quadrant (upper right) [8]: 72%
- binding result (rat P2X7 (rP2X7)): no binding
- MFI (AF647) of CD4+ lymphocytes, unblocked [3]: 17
- MFI (AF647) of CD4- lymphocytes, unblocked [3]: 14
- % of lymphocytes in the CD4+ / AF647+ quadrant (upper right), blocked [9]: 0.4%
- % of lymphocytes in the CD4- / AF647+ quadrant (upper left), blocked [9]: 0.7%
- % of lymphocytes in the CD4+ / AF647+ quadrant (upper right), unblocked [10]: 35%
- % of lymphocytes in the CD4- / AF647+ quadrant (upper left), unblocked [10]: 24%
- IC50 [nM], blockade of L-selectin (CD62L) shedding in transfected HEK cells, 4 mM ATP [1]: 0.6 nM
- IC50 [ng/ml], blockade of L-selectin (CD62L) shedding in transfected HEK cells, 4 mM ATP [1]: 50 ng/mL
- fold enhanced potency to block activation of P2X7, Nb-Fc fusion protein against its monovalent counterpart [1]: 5 to 20 fold
- molar inhibition potency relative to monovalent 3c23 (CD62L shedding) [1]: 4 fold
B6: 3c23-Fc (Nb 3c23 fused to the Fc-domain of mouse IgG1) (Fc fusion)
chain: EVQLVESGGGLVQAGGSLRLSCAASGRTFRHYAMGWFRQAPGKEREFVAAISSYGSTDYGDSVKGRFTISRDDAKNTVPLQMNSLKPEDTAVYYCAAADETLGAVPNFRLHEKYEYEYWGQGTQVTVSSA
notes: Bivalent N-terminally FLAG-tagged Nb-Fc fusion protein made in HEK cells; Used unconjugated or conjugated to Alexa647; also called WD3c23Fc; Nb 3c23-Fc; not shown: N-terminal FLAG tag; Fc-domain of mouse IgG1

- binding result (rat P2X7 (rP2X7)): no binding
- % of cells in the GFP+ / anti-mIgG A647+ quadrant (upper right) [11]: 1.2%
B7: 13A7-Fc (Nb-Fc fusion protein of Nb 13A7) (Fc fusion)
chain: EVQLVESGGGLVQPGESLRLSCTASRFMLDYYDIGWFRQAPGKEREGVSCRFTNDGSTAYADSVKGRFTISRDIVKHTVYLQMNSLQPEDTAVYYCAAGPLTKRRQCVPGDFSMDFWGEGTLVTVSS
notes: Nb-Fc fusion; also called fluorochrome-conjugated Nb 13A7; not shown: Fc part

- IC50 [nM], blockade of L-selectin (CD62L) shedding in transfected HEK cells, 4 mM ATP [1]: 2.7 nM
- IC50 [ng/ml], blockade of L-selectin (CD62L) shedding in transfected HEK cells, 4 mM ATP [1]: 40 ng/mL
B8: Nb 3c23 (monovalent) (VHH)
VHH: EVQLVESGGGLVQAGGSLRLSCAASGRTFRHYAMGWFRQAPGKEREFVAAISSYGSTDYGDSVKGRFTISRDDAKNTVPLQMNSLKPEDTAVYYCAAADETLGAVPNFRLHEKYEYEYWGQGTQVTVSS
